From IntAct's records for PubMed 24316379

B1: Interleukin-1 receptor-associated kinase 4 (Homo sapiens), Q9NWZ3 (parent)
chain: MNKPITPSTYVRCLNVGLIRKLSDFIDPQEGWKKLAVAIKKPSGDDRYNQFHIRRFEALLQTGKSPTSELLFDWGTTNCTVGDLVDLLIQNEFFAPASLLLPDAVPKTANTLPSKEAITVQQKQMPFCDKDRTLMTPVQNLEQSYMPPDSSSPENKSLEVSDTRFHSFSFYELKNVTNNFDERPISVGGNKMGEGGFGVVYKGYVNNTTVAVKKLAAMVDITTEELKQQFDQEIKVMAKCQHENLVELLGFSSDGDDLCLVYVYMPNGSLLDRLSCLDGTPPLSWHMRCKIAQGAANGINFLHENHHIHRDIKSANILLDEAFTAKISDFGLARASEKFAQTVMTSRIVGTTAYMAPEALRGEITPKSDIYSFGVVLLEIITGLPAVDEHREPQLLLDIKEEIEDEEKTIEDYIDKKMNDADSTSVEAMYSVASQCLHEKKNKRPDIKKVQQLLQEMTAS

Variants of: B1
Settings: with MYD88, Q99836-1
Chain of MYD88, Q99836-1 (Q99836 whole entry): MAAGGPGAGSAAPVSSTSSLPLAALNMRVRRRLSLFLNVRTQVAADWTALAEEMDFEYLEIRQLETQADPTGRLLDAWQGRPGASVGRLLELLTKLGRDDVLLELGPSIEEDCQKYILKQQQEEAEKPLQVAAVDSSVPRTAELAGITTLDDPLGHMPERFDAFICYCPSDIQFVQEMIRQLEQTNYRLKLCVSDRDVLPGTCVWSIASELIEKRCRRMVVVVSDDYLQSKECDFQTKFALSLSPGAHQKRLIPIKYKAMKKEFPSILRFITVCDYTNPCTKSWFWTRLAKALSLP

| effect of a mutation on the interaction | Variant |
| --- | --- |
| decreasing interaction strength | MNKPITPSTYVRCLNVGLIWKLSDFIDPQEGWKKLAVAIKKPSGDDRYNQFHIRRFEALLQTGKSPTSELLFDWGTTNCTVGDLVDLLIQNEFFAPASLLLPDAVPKTANTLPSKEAITVQQKQMPFCDKDRTLMTPVQNLEQSYMPPDSSSPENKSLEVSDTRFHSFSFYELKNVTNNFDERPISVGGNKMGEGGFGVVYKGYVNNTTVAVKKLAAMVDITTEELKQQFDQEIKVMAKCQHENLVELLGFSSDGDDLCLVYVYMPNGSLLDRLSCLDGTPPLSWHMRCKIAQGAANGINFLHENHHIHRDIKSANILLDEAFTAKISDFGLARASEKFAQTVMTSRIVGTTAYMAPEALRGEITPKSDIYSFGVVLLEIITGLPAVDEHREPQLLLDIKEEIEDEEKTIEDYIDKKMNDADSTSVEAMYSVASQCLHEKKNKRPDIKKVQQLLQEMTAS [R20W] |
| decreasing interaction strength | MNKPITPSTYVCCLNVGLIRKLSDFIDPQEGWKKLAVAIKKPSGDDRYNQFHIRRFEALLQTGKSPTSELLFDWGTTNCTVGDLVDLLIQNEFFAPASLLLPDAVPKTANTLPSKEAITVQQKQMPFCDKDRTLMTPVQNLEQSYMPPDSSSPENKSLEVSDTRFHSFSFYELKNVTNNFDERPISVGGNKMGEGGFGVVYKGYVNNTTVAVKKLAAMVDITTEELKQQFDQEIKVMAKCQHENLVELLGFSSDGDDLCLVYVYMPNGSLLDRLSCLDGTPPLSWHMRCKIAQGAANGINFLHENHHIHRDIKSANILLDEAFTAKISDFGLARASEKFAQTVMTSRIVGTTAYMAPEALRGEITPKSDIYSFGVVLLEIITGLPAVDEHREPQLLLDIKEEIEDEEKTIEDYIDKKMNDADSTSVEAMYSVASQCLHEKKNKRPDIKKVQQLLQEMTAS [R12C] |

Variants of: B1
Settings: with MYD88, Q99836-1
Remark: another data set of the same source

| effect of a mutation on the interaction | Variant |
| --- | --- |
| disrupting interaction strength | MNKPITPSTYVCCLNVGLIRKLSDFIDPQEGWKKLAVAIKKPSGDDRYNQFHIRRFEALLQTGKSPTSELLFDWGTTNCTVGDLVDLLIQNEFFAPASLLLPDAVPKTANTLPSKEAITVQQKQMPFCDKDRTLMTPVQNLEQSYMPPDSSSPENKSLEVSDTRFHSFSFYELKNVTNNFDERPISVGGNKMGEGGFGVVYKGYVNNTTVAVKKLAAMVDITTEELKQQFDQEIKVMAKCQHENLVELLGFSSDGDDLCLVYVYMPNGSLLDRLSCLDGTPPLSWHMRCKIAQGAANGINFLHENHHIHRDIKSANILLDEAFTAKISDFGLARASEKFAQTVMTSRIVGTTAYMAPEALRGEITPKSDIYSFGVVLLEIITGLPAVDEHREPQLLLDIKEEIEDEEKTIEDYIDKKMNDADSTSVEAMYSVASQCLHEKKNKRPDIKKVQQLLQEMTAS [R12C] |
